Data set [1] concerns c-Abl (mouse). Nature of the data set: phosphorylation enrichment, bacterial display (enrichment ratio); higher = better substrate or ligand; peptides without Tyr show the background.
The test system of data set [2] is c-Src. The description is as above.
The target of data set [3] is Jak2 (UniProt O60674). The data set is described as above.
The target of data set [4] is Fyn (UniProt P06241). The description is as above.
The target in data set [5] is Hck (UniProt P08631). The data set is described as above.
The test system of data set [6] is AncSZ. Described as above.
For data set [7], the target named is EPHB1 (UniProt P54762). The data set is described as above.
Data set [8] has as its target Fes (UniProt P07332). Described as above.
Data set [9] deals with FGFR1 (UniProt P11362). The description is as above.
In data set [10] the test system is Fer (mouse). The description is as above.
The target of data set [11] is EPHB2 (UniProt P29323). The data set is described as above.
Data set [12] concerns the target MERTK (UniProt Q12866). Described as above.
In data set [13] the target is FGFR3 (UniProt P22607). The description is as above.
Data set [14] concerns the target SHP2-C SH2. Nature of the data set: SH2 binding enrichment of the phosphorylated peptide, bacterial display (enrichment ratio); higher = better substrate or ligand; peptides without Tyr show the background.
The target of data set [15] is c-Src SH2. Described as above.
The target in data set [16] is Grb2 SH2 (UniProt P62993). The description is as above.
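Throughout, for SH2 binding enrichment of the phosphorylated peptide, bacterial display: peptide library displayed on the E. coli surface as eCPX fusions, selected cells deep-sequenced, score is each peptide's frequency after selection divided by its frequency in the input.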
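Throughout, for phosphorylation enrichment, bacterial display: 11-residue human phosphosite peptides and single-mutation variants displayed on the E. coli surface, counted by deep sequencing, each peptide's frequency after selection divided by its frequency in the unselected input library; frequency after pTyr selection over input frequency; kinase dosed for 20-30% of maximal phosphorylation in three min.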

Fyn, sequence (P06241 whole entry, looked up): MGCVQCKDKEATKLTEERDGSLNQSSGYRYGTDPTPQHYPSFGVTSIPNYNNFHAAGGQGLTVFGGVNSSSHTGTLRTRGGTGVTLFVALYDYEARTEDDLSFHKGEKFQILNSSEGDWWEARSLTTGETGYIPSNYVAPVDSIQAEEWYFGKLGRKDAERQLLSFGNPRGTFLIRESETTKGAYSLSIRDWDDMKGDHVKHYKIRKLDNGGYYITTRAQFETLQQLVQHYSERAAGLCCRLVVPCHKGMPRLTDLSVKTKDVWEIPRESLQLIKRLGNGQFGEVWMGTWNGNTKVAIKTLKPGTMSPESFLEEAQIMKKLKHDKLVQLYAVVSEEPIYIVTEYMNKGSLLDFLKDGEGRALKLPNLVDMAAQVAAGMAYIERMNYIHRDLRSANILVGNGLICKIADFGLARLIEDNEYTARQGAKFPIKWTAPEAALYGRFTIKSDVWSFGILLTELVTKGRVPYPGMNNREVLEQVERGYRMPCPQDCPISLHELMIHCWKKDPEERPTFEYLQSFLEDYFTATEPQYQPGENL
Jak2, sequence (O60674 whole entry, looked up): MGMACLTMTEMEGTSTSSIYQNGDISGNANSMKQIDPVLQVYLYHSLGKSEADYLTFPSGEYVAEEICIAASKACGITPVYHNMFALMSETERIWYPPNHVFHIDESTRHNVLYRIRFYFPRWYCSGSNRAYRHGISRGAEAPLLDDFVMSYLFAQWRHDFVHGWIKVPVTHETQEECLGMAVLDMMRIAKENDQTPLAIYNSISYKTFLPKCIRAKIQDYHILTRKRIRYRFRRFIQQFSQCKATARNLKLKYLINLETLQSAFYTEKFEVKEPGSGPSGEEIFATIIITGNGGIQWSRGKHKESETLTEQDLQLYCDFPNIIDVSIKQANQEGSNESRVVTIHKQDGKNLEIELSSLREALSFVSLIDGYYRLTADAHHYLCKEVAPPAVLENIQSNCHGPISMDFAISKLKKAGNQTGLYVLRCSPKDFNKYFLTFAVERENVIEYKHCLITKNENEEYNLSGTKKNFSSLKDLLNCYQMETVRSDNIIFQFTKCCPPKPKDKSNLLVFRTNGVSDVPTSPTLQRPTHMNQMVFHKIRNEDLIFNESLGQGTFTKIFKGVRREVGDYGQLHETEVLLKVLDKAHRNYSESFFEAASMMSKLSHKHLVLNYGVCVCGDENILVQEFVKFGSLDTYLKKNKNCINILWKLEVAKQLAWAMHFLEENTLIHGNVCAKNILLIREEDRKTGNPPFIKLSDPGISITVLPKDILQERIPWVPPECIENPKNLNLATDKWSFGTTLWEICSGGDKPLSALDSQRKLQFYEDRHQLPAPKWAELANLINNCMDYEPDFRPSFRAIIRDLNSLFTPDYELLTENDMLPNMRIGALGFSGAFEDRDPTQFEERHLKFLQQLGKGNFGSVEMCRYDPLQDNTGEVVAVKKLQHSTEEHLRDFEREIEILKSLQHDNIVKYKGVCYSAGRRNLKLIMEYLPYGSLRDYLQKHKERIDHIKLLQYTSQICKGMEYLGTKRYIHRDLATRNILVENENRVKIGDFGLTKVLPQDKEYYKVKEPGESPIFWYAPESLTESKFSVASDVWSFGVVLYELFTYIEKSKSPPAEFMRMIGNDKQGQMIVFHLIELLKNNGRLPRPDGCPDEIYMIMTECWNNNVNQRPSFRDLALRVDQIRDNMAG
EPHB2, sequence (P29323 whole entry, looked up): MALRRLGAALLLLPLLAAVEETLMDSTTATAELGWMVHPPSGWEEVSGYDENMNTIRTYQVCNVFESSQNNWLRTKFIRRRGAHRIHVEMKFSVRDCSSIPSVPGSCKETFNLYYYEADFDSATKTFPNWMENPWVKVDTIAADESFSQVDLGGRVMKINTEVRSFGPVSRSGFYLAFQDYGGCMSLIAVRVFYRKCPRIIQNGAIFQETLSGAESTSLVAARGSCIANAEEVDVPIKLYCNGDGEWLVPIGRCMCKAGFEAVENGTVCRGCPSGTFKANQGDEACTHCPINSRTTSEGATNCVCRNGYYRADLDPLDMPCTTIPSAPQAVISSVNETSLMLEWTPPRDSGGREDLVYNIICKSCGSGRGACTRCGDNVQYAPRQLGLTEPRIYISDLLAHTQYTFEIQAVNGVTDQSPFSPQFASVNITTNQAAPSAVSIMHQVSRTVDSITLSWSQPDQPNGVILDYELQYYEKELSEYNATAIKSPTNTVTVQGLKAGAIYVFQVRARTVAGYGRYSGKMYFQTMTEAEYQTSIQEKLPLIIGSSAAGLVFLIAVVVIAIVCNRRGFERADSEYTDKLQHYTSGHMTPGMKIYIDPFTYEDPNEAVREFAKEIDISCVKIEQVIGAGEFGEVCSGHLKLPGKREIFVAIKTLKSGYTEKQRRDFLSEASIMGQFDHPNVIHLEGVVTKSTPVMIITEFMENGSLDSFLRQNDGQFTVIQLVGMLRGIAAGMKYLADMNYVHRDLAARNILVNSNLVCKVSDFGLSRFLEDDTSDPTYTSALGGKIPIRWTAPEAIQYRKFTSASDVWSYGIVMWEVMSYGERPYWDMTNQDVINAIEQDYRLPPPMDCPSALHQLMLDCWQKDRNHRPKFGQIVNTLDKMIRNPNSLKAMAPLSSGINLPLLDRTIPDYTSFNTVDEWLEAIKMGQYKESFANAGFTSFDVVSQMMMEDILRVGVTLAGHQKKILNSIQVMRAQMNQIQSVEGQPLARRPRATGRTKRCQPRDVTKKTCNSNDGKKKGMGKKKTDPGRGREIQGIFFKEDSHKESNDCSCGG
MERTK, sequence (Q12866 whole entry, looked up): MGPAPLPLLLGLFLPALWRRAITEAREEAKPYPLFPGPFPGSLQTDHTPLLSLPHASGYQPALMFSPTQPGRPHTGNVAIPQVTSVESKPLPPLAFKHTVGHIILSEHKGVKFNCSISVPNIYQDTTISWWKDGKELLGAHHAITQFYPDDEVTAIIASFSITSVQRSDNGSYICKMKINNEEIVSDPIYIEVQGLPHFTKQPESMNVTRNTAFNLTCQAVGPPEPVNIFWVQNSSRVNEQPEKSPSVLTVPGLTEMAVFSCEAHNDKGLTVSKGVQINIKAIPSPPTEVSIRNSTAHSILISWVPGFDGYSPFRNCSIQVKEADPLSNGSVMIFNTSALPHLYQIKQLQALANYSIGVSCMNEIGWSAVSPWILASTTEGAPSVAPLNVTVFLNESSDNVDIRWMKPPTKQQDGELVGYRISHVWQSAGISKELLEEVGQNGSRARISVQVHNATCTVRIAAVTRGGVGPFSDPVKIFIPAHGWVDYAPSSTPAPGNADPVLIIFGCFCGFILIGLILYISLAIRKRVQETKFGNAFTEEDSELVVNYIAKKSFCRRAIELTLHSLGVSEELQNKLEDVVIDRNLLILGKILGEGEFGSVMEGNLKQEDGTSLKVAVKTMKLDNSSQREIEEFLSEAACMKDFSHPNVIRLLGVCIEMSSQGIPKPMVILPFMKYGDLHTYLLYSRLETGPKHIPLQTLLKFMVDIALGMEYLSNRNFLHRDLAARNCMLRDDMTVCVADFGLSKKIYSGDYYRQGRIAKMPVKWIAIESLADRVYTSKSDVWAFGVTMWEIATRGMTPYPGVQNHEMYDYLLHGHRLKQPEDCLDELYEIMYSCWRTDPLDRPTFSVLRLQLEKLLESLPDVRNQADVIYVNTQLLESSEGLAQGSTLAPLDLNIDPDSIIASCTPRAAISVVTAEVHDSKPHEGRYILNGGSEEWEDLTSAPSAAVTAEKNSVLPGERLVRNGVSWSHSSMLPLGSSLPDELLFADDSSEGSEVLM
Grb2 SH2, sequence (P62993 whole entry, looked up, the tested form may be a part): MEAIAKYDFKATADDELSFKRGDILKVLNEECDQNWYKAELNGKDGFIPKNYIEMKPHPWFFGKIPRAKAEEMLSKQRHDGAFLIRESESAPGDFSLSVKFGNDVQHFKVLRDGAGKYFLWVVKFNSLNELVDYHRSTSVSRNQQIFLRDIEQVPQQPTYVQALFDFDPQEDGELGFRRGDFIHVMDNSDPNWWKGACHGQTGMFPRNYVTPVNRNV
Hck, sequence (P08631 whole entry, looked up): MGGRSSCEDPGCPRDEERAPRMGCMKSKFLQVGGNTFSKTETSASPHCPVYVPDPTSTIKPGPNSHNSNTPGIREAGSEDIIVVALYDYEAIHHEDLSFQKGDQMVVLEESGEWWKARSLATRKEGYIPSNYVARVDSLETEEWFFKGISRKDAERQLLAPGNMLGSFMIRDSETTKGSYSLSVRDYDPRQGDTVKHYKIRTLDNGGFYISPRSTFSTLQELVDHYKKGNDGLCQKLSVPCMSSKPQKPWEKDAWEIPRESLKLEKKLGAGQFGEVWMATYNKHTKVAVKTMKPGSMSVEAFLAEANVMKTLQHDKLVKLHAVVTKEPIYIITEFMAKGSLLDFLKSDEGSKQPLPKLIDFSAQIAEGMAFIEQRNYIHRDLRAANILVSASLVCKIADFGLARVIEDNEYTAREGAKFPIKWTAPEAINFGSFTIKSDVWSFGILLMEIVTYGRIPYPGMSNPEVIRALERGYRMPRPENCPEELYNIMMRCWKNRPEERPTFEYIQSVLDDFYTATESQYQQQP

As to RLLRGHDQFAF [HLA-B_Y137_YF], the phosphorylation enrichment in data set [1] came out at 0.716; in data set [2] it was 0.505; in data set [3], 1.07; in data set [4] it was 0.289; in [5], 0.405; in [6], 0.388. In addition, the phosphorylation enrichment in data set [7] came out at 0.327; in [8], 0.554; in [9] it was 0.309; in data set [10] it was 0.316; in data set [11], 0.32; in [12], 0.34. Also, in [13], the phosphorylation enrichment turned out to be 0.472. Further, the figures for the SH2 binding enrichment in data set [14], in data set [15] and in data set [16] were 0.724, 0.748 and 1.06, respectively.

Consider RLLRGYDQLAF [HLA-C_Y137_S140L_YF], for which the phosphorylation enrichment in data set [1] came to 0.926; in [2] it was 0.62; in [3], 1.08; in [4], 0.435; in data set [5], 0.554; in data set [6] it was 0.898. The phosphorylation enrichment in [7] is 0.464; in data set [8], 0.838; in data set [9], 0.415; in [10], 0.498; in data set [11], 0.479; in data set [12] it was 0.495. For the same sequence, the phosphorylation enrichment in data set [13] was determined as 0.639. Besides, the SH2 binding enrichment in [14] is 0.968; in data set [15] it was 4.73; in data set [16], 1.16.

Take RLMLQYDAVVN [SLC25A32_Y152]: the phosphorylation enrichment stood at 0.685 in data set [1]; 0.406 in [2]; 1.13 in [3]; 0.57 in [4]; 0.702 in data set [5]; 1.32 in data set [6]. Also, the phosphorylation enrichment in [7] was 0.733; in [8] it was 1.67; in data set [9] it was 0.47; in [10], 0.662; in data set [11], 0.703; in data set [12] it was 0.414. Also, the phosphorylation enrichment in data set [13] is 0.674. Further, the results for the SH2 binding enrichment in [14], in [15] and in data set [16] were 0.863, 1.88 and 1.02, respectively.

In the case of RLNCIYYKDQT [RS1_Y165_W163C], the phosphorylation enrichment in data set [1] turned out to be 0.897; in data set [2], 1.74; in data set [3], 1.21; in data set [4], 0.878; in data set [5], 0.889; in data set [6] it was 1.01. In addition, the phosphorylation enrichment amounted to 0.722 in data set [7]; 1.16 in [8]; 0.971 in [9]; 0.497 in data set [10]; 0.639 in data set [11]; 1.57 in data set [12]. Besides, the phosphorylation enrichment in data set [13] is 0.751. The SH2 binding enrichment in [14] came to 0.456; in [15], 0.527; in data set [16], 1.15.

With RLRAAYNLVKR [PFKM_Y103], the phosphorylation enrichment in [1] is 0.815; in data set [2], 0.653; in [3], 0.766; in [4], 0.632; in [5] it was 0.698; in data set [6], 1.16. The phosphorylation enrichment in data set [7] came to 0.571; in [8], 1.04; in data set [9], 0.658; in [10], 0.771; in data set [11], 0.715; in [12], 0.559. In addition, in [13], the phosphorylation enrichment was determined as 1.01. The SH2 binding enrichment is 0.489 in [14], 0.39 in [15] and 0.721 in data set [16].

With RLRKYHLGKYL [KLB_Y906_Y906H], the phosphorylation enrichment in data set [1] was 0.61; in data set [2], 0.387; in data set [3], 0.483; in data set [4], 0.318; in [5], 0.253; in data set [6], 0.726. Moreover, the phosphorylation enrichment in data set [7] came to 0.439; in data set [8] it was 0.498; in data set [9], 0.29; in data set [10], 0.426; in data set [11], 0.399; in data set [12] it was 0.503. The phosphorylation enrichment in [13] was found to be 0.464. Further, the SH2 binding enrichment in data set [14] is 0.594; in [15], 0.395; in [16], 0.476.

On to RLRVVYPWTQR [HBB_Y36_L33R], for which the phosphorylation enrichment turned out to be 0.484 in data set [1]; 0.382 in data set [2]; 0.494 in data set [3]; 0.6 in data set [4]; 0.364 in data set [5]; 0.688 in [6]. Also, the phosphorylation enrichment in data set [7] came out at 0.367; in data set [8], 0.711; in data set [9] it was 0.422; in data set [10] it was 0.335; in data set [11], 0.363; in [12] it was 0.819. Besides, in data set [13], the phosphorylation enrichment stood at 0.568. Further, the SH2 binding enrichment in data set [14] is 0.44; in data set [15], 0.636; in [16], 1.06.

Take RMDGTYACSFT [FLNB_Y704_YF]: the phosphorylation enrichment in data set [1] worked out at 1.34; in data set [2], 2.31; in data set [3] it was 0.806; in data set [4], 2.61; in data set [5], 2.43; in [6] it was 1.3. Moreover, the phosphorylation enrichment in data set [7] worked out at 1.03; in [8], 1.16; in data set [9], 0.836; in data set [10] it was 0.932; in data set [11] it was 0.741; in [12], 0.702. Besides, in data set [13], the phosphorylation enrichment turned out to be 0.812. Also, the SH2 binding enrichment in [14] was 0.619; in data set [15], 0.557; in data set [16], 0.893.

Values taken from the supplement of paper PMC10065799, “High-throughput profiling of sequence recognition by tyrosine kinases and SH2 domains using bacterial peptide display” (eLife, 2023).
